Assay results reported in patent publication US20240270821A1, “GIP/GLP1/GCG TRI-RECEPTOR AGONISTS AND USES THEREOF” (priority 2023, published 2024).

B1: Example 772 (peptide)
chain: YXQGTFTSDFSQXLDKKAQXAFIEYLLAGGPSSGAPPPEGS
modifications: synthetic construct; SITE 2: note = 2-Aminoisobutyric Acid; SITE 13: note = alpha-methyl-leucine; SITE 17: note = Lysine is chemically modified through conjugation of the epsilon-amino group of the Lysine side chain with (2-[2-(2-Amino-ethoxy)-ethoxy]-acetyl)-(gamma-Glu)-CO-(CH2) 16-CO2H; SITE 20: n
B2: Example 773 (peptide)
chain: YXQGTFTSDFSQXLDKKAQXAFIEYLLAGGPSSGEPPPSGS
modifications: synthetic construct; SITE 2: note = 2-Aminoisobutyric Acid; SITE 13: note = alpha-methyl-leucine; SITE 17: note = Lysine is chemically modified through conjugation of the epsilon-amino group of the Lysine side chain with (2-[2-(2-Amino-ethoxy)-ethoxy]-acetyl)-(gamma-Glu)-CO-(CH2) 16-CO2H; SITE 20: n
B3: Example 774 (peptide)
chain: YXQGTFTSDFSQXLDKKAQXAFIEWLLEGGPSSGAPPPEGS
modifications: synthetic construct; SITE 2: note = 2-Aminoisobutyric Acid; SITE 13: note = alpha-methyl-leucine; SITE 17: note = Lysine is chemically modified through conjugation of the epsilon-amino group of the Lysine side chain with (2-[2-(2-Amino-ethoxy)-ethoxy]-acetyl)-(gamma-Glu)-CO-(CH2) 16-CO2H; SITE 20: n
B4: Example 763 (peptide)
chain: YXQGTXTSDXXIXLDXKAQXEFIEXLIEGGPSSGEPPPEGTGE
modifications: synthetic construct; SITE 2: note = 2-Aminoisobutyric Acid; SITE 6: note = alpha-methyl-2-fluoro-L-phenylalanine; SITE 10: note = 3-(4-Pyridyl)-L-alanine; SITE 11: note = alpha-methyl-L-serine; SITE 13: note = alpha-methyl-leucine; SITE 16: note = L-ornithine; SITE 17: note = Lysine is chemically mo
B5: Example 72 (peptide)
chain: YXQGTFTSDFSXXLDKKAQXAFIEYLLEAGPSSGAPPPSEG
modifications: not fully specified; synthetic construct; SITE 2: note = 2-Aminoisobutyric Acid; SITE 12: note = L-ornithine; SITE 13: note = alpha-methyl-leucine; SITE 17: note = Lysine is chemically modified through conjugation of the epsilon-amino group of the Lysine side chain with (2-[2-(2-Amino-ethoxy)-ethoxy]-acetyl)2-(gamma-Glu)
B6: Example 770 (peptide)
chain: YXQGTFTSDFSXXLDKKAQXAFIEYLLEGGPSSXAPPPGGS
modifications: not fully specified; synthetic construct; SITE 2: note = 2-Aminoisobutyric Acid; SITE 12: note = L-ornithine; SITE 13: note = alpha-methyl-leucine; SITE 17: note = Lysine is chemically modified through conjugation of the epsilon-amino group of the Lysine side chain with (gamma-Glu)2-CO-(CH2)16-CO2H; SITE 20: note = 2-Am
B7: Example 777 (peptide)
chain: YXQGTFTSDFSQXLDKKAQXAFIEYLLEAGPSSGAPPPSGX
modifications: synthetic construct; SITE 2: note = 2-Aminoisobutyric Acid; SITE 13: note = alpha-methyl-leucine; SITE 17: note = Lysine is chemically modified through conjugation of the epsilon-amino group of the Lysine side chain with (2-[2-(2-Amino-ethoxy)-ethoxy]-acetyl)-(gamma-Glu)-CO-(CH2) 16-CO2H; SITE 20: n
B8: Example 775 (peptide)
chain: YXQGTFTSDFSQXLDKKAQXAFIEYLLEAGPSSGAPPPSGS
modifications: synthetic construct; SITE 2: note = 2-Aminoisobutyric Acid; SITE 13: note = alpha-methyl-leucine; SITE 17: note = Lysine is chemically modified through conjugation of the epsilon-amino group of the Lysine side chain with (2-[2-(2-Amino-ethoxy)-ethoxy]-acetyl)-(gamma-Glu)-CO-(CH2) 16-CO2H; SITE 20: n
B9: Example 771 (peptide)
chain: YXQGTFTSDFSXXLDKKAQXAFIEYLLEGGPSSGXPPPGGS
modifications: not fully specified; synthetic construct; SITE 2: note = 2-Aminoisobutyric Acid; SITE 12: note = L-ornithine; SITE 13: note = alpha-methyl-leucine; SITE 17: note = Lysine is chemically modified through conjugation of the epsilon-amino group of the Lysine side chain with (gamma-Glu)2-CO-(CH2)16-CO2H; SITE 20: note = 2-Am
B10: Example 767 (peptide)
chain: YXQGTXTSDXXIXLDXKYQXEFIEXLVEGGPSSGAPPPSGS
modifications: synthetic construct; SITE 2: note = 2-Aminoisobutyric Acid; SITE 6: note = alpha-methyl-2-fluoro-L-phenylalanine; SITE 10: note = 3-(4-Pyridyl)-L-alanine; SITE 11: note = alpha-methyl-L-serine; SITE 13: note = alpha-methyl-leucine; SITE 16: note = L-ornithine; SITE 17: note = Lysine is chemically mo
B11: Example 768 (peptide)
chain: YXQGTXTSDXXIXLEXKAQXEFIEXLVEGGPSSGAPPPSGS
modifications: synthetic construct; SITE 2: note = 2-Aminoisobutyric Acid; SITE 6: note = alpha-methyl-2-fluoro-L-phenylalanine; SITE 10: note = 3-(4-Pyridyl)-L-alanine; SITE 11: note = alpha-methyl-L-serine; SITE 13: note = alpha-methyl-leucine; SITE 16: note = L-ornithine; SITE 17: note = Lysine is chemically mo

What was measured:
Assay in all cases: cell-based or functional assay
hGLP-1R = hGLP-1R (Homo sapiens, UniProt P43220)
[1] = biological target: T1, human GIP receptor (human) (UniProt P48546)
T1 sequence (looked up): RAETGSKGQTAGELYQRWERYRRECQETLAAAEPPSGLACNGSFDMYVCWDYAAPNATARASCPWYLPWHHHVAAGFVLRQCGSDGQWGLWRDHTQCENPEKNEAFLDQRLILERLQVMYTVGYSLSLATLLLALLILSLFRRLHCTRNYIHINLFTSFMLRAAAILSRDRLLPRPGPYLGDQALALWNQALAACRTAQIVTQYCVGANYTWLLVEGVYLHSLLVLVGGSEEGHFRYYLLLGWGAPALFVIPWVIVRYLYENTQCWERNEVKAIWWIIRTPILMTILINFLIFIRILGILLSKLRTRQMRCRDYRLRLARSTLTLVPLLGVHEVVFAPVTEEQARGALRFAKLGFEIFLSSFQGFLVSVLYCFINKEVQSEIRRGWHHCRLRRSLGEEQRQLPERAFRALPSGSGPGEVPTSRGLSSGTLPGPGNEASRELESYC

[2] = biological target: human glucagon receptor (human) (UniProt P47871)
Chain of human glucagon receptor (human) (P47871 26-477): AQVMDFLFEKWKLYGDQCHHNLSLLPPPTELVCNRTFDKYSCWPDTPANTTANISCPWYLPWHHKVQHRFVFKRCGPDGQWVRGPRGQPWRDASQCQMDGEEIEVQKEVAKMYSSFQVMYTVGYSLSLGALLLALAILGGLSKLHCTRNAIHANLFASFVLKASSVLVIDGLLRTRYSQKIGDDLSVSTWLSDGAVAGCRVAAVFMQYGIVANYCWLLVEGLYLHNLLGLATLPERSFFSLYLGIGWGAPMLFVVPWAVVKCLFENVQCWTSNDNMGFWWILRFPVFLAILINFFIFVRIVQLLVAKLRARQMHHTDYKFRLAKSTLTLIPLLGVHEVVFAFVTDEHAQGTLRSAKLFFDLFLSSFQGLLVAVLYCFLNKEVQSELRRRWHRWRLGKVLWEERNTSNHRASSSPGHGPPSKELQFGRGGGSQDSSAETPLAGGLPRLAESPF

Chain of hGLP-1R (P43220 24-463): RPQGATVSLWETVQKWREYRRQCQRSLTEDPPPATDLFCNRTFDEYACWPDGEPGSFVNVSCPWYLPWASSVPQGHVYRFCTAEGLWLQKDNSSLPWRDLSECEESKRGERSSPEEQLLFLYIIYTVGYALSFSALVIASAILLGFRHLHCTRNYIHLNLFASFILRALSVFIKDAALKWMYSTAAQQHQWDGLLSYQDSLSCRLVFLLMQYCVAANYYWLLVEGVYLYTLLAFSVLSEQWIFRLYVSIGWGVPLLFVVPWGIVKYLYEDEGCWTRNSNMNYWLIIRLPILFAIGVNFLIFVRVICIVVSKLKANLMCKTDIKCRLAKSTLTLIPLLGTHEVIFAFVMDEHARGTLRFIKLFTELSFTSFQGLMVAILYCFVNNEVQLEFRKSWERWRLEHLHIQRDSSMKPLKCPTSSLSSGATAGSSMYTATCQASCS

Binder	Relative cAMP EC50 (hGLP-1R) [nM]	cAMP Rel EC50, nM (1% HSA) (hGLP-1R) [nM]	Relative cAMP EC50 [1] [nM]	cAMP Rel EC50, nM (1% HSA) [1] [nM]	Relative cAMP EC50 [2] [nM]	cAMP Rel EC50, nM (1% HSA) [2] [nM]	cAMP Rel EC50, nM (in the presence of 1% HSA) (hGLP-1R) [nM]	cAMP Rel EC50, nM (in the presence of 1% HSA) [1] [nM]	cAMP Rel EC50, nM (in the presence of 1% HSA) [2] [nM]
B1	1.38	206	0.115	21.6	15.9	1880	–	–	–
B2	1.97	241	0.0974	26.3	15.3	2260	–	–	–
B3	1.89	404	0.128	32.8	13.7	2330	–	–	–
B4	0.302	42.5	0.00719	1.16	1.57	222	–	–	–
B5	1.86	–	0.202	–	5.48	–	683	56.7	1910
B6	3.91	240	0.244	18.2	5.37	390	–	–	–
B7	0.913	231	0.113	22.2	3.89	1320	–	–	–
B8	0.993	202	0.105	25.8	4.36	724	–	–	–
B9	4.38	665	0.232	44.2	5.05	955	–	–	–
B10	0.299	56.8	0.00792	1.51	1.13	207	–	–	–
B11	0.259	33.2	0.0294	2.65	10.3	2270	–	–	–
